Data taken from patent US20180030111A1.
Read-outs that look alike come from different tables or passages of the source.

How the values were obtained:
[1] = biological target: C1q complement (rabbit serum as complement source) (rabbit); test: cell-based or functional assay
[2] = biological target: FcgRIIIa receptor (CD16a) on human NK cells (human) (UniProt P08637); test: cell-based or functional assay
[3] = biological target: CD32aR (FcgRIIa receptor, R at position 131) (human) (UniProt P12318); test: ELISA, purified IgG on coated receptor, ratio against wild-type
CD64 = CD64 (UniProt P12314); test: as above
CD64, sequence (P12314 16-288 limits assumed): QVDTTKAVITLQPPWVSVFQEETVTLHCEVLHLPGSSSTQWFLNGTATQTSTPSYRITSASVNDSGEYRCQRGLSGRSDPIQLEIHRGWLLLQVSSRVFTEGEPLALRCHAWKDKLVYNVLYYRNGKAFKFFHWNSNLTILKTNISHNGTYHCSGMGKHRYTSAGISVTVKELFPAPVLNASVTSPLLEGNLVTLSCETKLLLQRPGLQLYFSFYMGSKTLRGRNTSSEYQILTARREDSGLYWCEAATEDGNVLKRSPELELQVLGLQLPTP

[4] = biological target: CD32b (FcgRIIb receptor) (human) (UniProt P31994); test: as above
CD32b (FcgRIIb receptor) (human), sequence (P31994 46-217): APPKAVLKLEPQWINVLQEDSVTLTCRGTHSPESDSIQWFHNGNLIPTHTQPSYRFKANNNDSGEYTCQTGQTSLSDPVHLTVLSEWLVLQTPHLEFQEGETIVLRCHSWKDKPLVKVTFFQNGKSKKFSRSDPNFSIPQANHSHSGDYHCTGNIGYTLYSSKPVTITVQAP

[5] = biological target: CD32aH (FcgRIIa receptor, H at position 131) (human) (UniProt P12318); test: as above
CD32aH (FcgRIIa receptor, H at position 131) (human), sequence (P12318 34-217): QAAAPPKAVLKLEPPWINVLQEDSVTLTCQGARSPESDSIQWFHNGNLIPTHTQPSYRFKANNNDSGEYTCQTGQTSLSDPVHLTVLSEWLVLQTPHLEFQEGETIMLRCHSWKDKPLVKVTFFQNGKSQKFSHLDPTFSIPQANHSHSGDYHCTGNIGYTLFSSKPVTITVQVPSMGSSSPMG

[6] = biological target: FcgRIIIa receptor (CD16a) on human NK cells (human) (UniProt P08637); test: cell-based or functional assay; remark: listed apart in the source
[7] = biological target: C1q complement (rabbit serum as complement source) (rabbit); test: cell-based or functional assay; remark: listed apart in the source
[8] = biological target: FcgRIIIa receptor (CD16a) (human) (UniProt P08637); test: cell-based or functional assay
FcgRIIIa receptor (CD16a) (human), sequence (P08637 17-254): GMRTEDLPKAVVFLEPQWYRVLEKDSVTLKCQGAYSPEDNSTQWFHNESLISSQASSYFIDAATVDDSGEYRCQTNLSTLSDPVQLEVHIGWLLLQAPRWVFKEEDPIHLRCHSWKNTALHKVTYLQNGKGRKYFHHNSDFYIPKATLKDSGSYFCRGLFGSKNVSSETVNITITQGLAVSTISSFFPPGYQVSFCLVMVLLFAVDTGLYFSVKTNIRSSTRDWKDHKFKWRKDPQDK

[9] = biological target: C1q complement (rabbit serum as complement source) (rabbit); test: cell-based or functional assay; remark: listed apart in the source

FcgRIIIa receptor (CD16a) on human NK cells (human), sequence (P08637 17-254): as above

Substance	CDC [1]	CDC, Antibody concentration (ng/ml) giving 50% lysis of an internal control [1] [ng/mL]	CDC, Ratio [WT]/[antibody] [1]	ADCC [2]	ELISA ratio (purified antibodies) [3]	ELISA ratio (purified antibodies) (CD64)	ELISA ratio (purified antibodies) [4]	ELISA ratio (purified antibodies) [5]	ADCC, EC50: Antibody concentration (ng/ml) giving 50% maximum lysis of an internal control [6] [ng/mL]	ADCC, Ratio [WT]/[antibody] [6]	ADCC, EC45: Antibody concentration (ng/ml) giving 45% maximum lysis of an internal control [2] [ng/mL]	ADCC, Ratio [WT]/[antibody] [2]	CDC, Antibody concentration (ng/ml) giving 50% lysis of an internal control [7] [ng/mL]	CDC, Ratio [WT]/[antibody] [7]	ADCC EC50: Antibody concentration (ng/ml) giving 50% lysis of an internal control [8] [ng/mL]	ADCC, Ratio [WT]/[antibody] [8]	ADCC, EC50: Antibody concentration (ng/ml) giving 50% maximum lysis of an internal control [2] [ng/mL]	CDC, Antibody concentration (ng/ml) giving 50% lysis of an internal control [9] [ng/mL]	CDC, Ratio [WT]/[antibody] [9]
anti-CD20 IgG variant A3A-173 (K248E, K334R, A378V) (antibody)	29.5	16	16.4	0.3	1.3	1.2	1.3	0.95	1.38	0.33	–	–	–	–	–	–	–	–	–
anti-CD20 IgG variant A3A-31 (K334R, L410R) (antibody)	–	108	2.42	–	–	–	–	–	1.84	0.24	–	–	–	–	–	–	–	–	–
anti-CD20 IgG variant N3A-87 (K290E, K320E, T350A, P396L) (antibody)	1.3	–	–	1	3.7	1.5	9	3.92	–	–	1	1	106	1.25	–	–	–	–	–
anti-CD20 IgG variant Q3A-39 (N286I, P396L, N421T) (antibody)	2.2	–	–	5.3	2.3	1.5	3.8	4.83	–	–	0.3	5.33	61	2.18	–	–	–	–	–
anti-CD20 IgG variant A3A-105 (G316D, K326E) (antibody)	–	–	–	–	–	–	–	–	1.37	–	–	–	–	–	–	–	–	–	–
anti-CD20 IgG1 with wild-type Fc (IgG-WT) (antibody)	–	262	1	–	–	–	–	–	0.45	–	1.6	1	133	–	–	–	10.5	237	–
anti-CD20 IgG variant O3A-05 (K290E, T366A, A378V) (antibody)	1.5	–	–	8	3.3	1.2	4.5	4.02	–	–	0.2	8	91	1.46	–	–	–	–	–

Now from value to substance:

CDC [1]	CDC, Antibody concentration (ng/ml) giving 50% lysis of an internal control [1] [ng/mL]	CDC, Ratio [WT]/[antibody] [1]	ADCC [2]	ELISA ratio (purified antibodies) [3]	ELISA ratio (purified antibodies) (CD64)	ELISA ratio (purified antibodies) [4]	ELISA ratio (purified antibodies) [5]	ADCC, EC50: Antibody concentration (ng/ml) giving 50% maximum lysis of an internal control [6] [ng/mL]	ADCC, Ratio [WT]/[antibody] [6]	ADCC, EC45: Antibody concentration (ng/ml) giving 45% maximum lysis of an internal control [2] [ng/mL]	ADCC, Ratio [WT]/[antibody] [2]	CDC, Antibody concentration (ng/ml) giving 50% lysis of an internal control [7] [ng/mL]	CDC, Ratio [WT]/[antibody] [7]	ADCC EC50: Antibody concentration (ng/ml) giving 50% lysis of an internal control [8] [ng/mL]	ADCC, Ratio [WT]/[antibody] [8]	ADCC, EC50: Antibody concentration (ng/ml) giving 50% maximum lysis of an internal control [2] [ng/mL]	CDC, Antibody concentration (ng/ml) giving 50% lysis of an internal control [9] [ng/mL]	CDC, Ratio [WT]/[antibody] [9]	Substance
–	–	–	–	–	–	–	–	–	–	–	–	–	–	12.3	1	–	–	–	IgG-WT (antibody)
20.4	23.1	11.3	0.6	1.2	1.5	1.1	1.2	0.75	0.6	–	–	–	–	–	–	–	–	–	anti-CD20 IgG variant K3B-90 (V308A, K334R, A378V, K447N) (antibody)
6.1	–	–	8.3	2.6	1.5	2	1.4	–	–	–	8.28	–	–	–	–	1.27	38.5	6.14	anti-CD20 IgG variant A3A-105D (G316D, K326E, A378V) (antibody)
3.2	145	–	–	–	–	–	–	0.57	–	–	–	–	–	–	–	–	–	–	anti-CD20 IgG variant J3B-115 (T359A, S383R, V397M) (antibody)
